{
  "source": "patent US20240343762A1",
  "about": "“USE OF PROTON PUMP MODULATOR IN PREPARING REAGENT” (SHANGHAI QUIETD BIOTECHNOLOGY CO. LTD., priority 2021, published 2024)",
  "key": {"[1]": {"test_system": "hippocampal CA1 pyramidal neurons", "experiment": "Whole-cell patch-clamp recording of spontaneous excitatory postsynaptic current (sEPSC) in hippocampus brain slice", "type": "cell-based, mouse", "conditions": "sEPSC at -70 mV, perfusion for 5 min; 5 μM in Embodiment 3", "procedure": "0.1-0.15 ml of 20% ethyl carbamate was injected into the abdominal cavity of a C57 mouse of 2 to 3 months old for anesthesia; a head was quickly cut, and brain tissues were stripped and put into artificial cerebrospinal fluid (ACSF) ice-water mixed liquid into which mixed gas (95% O2 and 5% CO2) was introduced in advance, and stood for 2 min; the ACSF included the following components: […] of NaCl, […] of KCl, 0.12 mM of NaH2PO4, 0.25 mM of CaCl2), 0.12 mM of MgCl2, 25 mM of NaHCO3 and 11 mM of glucose. A hippocampus coronal brain slice of 350 μm was cut by a vibration slicer. The hippocampus coronal brain slice was placed into the ACSF at room temperature for more than 30 min for recovery, and then the brain slice was put into a record slot; continuous perfusing was performed at a speed of 2 to 2.5 ml/min by the ACSF into which the mixed gas was introduced; blind-binding sealing was performed on hippocampus CA1 pyramidal neuron under an Olympic BX51 upright microscope; whole-cell patch-clamp was performed by an Axon700B amplifier and a 1550B digital-to-analog converter; spontaneous excitatory postsynaptic current (sEPSC) of the pyramidal neuron was recorded by a voltage clamp under the clamp voltage of −70 mV; after recording for 5 min, synthetic polypeptides such as 5 μM QD202 or QD202 N′-1, C′-1 and C′-2 for 5 min; and then perfusing and flushing were performed for 10 min by the ACSF. The recorded data was analyzed by Minianalysis software. […]"}, "[2]": {"target": "T1, murine ATP6V1B2 1-286aa truncated sequence (Mus musculus, UniProt P62814)", "T1 construct": "expressed in transfected cells; host or cells: 293 cells", "T1 sequence (P62814 1-286)": "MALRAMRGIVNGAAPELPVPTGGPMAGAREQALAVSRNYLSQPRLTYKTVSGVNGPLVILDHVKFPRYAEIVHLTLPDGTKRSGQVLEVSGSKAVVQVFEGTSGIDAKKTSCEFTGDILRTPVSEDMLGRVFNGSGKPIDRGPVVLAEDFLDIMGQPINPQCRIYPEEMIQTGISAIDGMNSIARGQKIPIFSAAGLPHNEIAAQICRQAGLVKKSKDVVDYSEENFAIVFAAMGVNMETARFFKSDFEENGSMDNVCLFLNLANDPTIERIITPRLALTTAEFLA", "experiment": "Co-immunoprecipitation of EGFP-tagged QD202 with Myc-tagged ATP6V1B2 1-286aa truncated sequence in 293 cells", "type": "binding", "conditions": "Myc antibody, immunoblotting", "source_text": "(§1) Expression plasmids including murine ATP6V1B2 full-length sequence, 1-286aa truncated sequence or 1-172aa truncated sequence with a Myc tag are respectively constructed; the amino acid sequence of the murine ATP6V1B2 full-length sequence was as set forth in SEQ ID NO. 8, the amino acid sequence of the murine ATP6V1B21-286aa was as set forth in SEQ ID NO. 10; the amino acid sequence of the murine ATP6V1B21-172aa as set forth in as SEQ ID NO. 11; and these plasmids were respectively called as an ATP6V1B2 full-length expression plasmid, an ATP6V1B21-286aa expression plasmid and an ATP6V1B21-172aa expression plasmid. Meanwhile, a QD202 expression plasmid with an EGFP tag was constructed. […]\n(§2) Then a Protein G agarose bead was added to be bound to the Myc antibody, so as to precipitate the ATP6V1B2 full-length protein, the 1-286aa truncated sequence or the 1-172aa truncated sequence, and proteins which were bound to one another, and finally the proteins subjected to co-immunoprecipitation was detected by virtue of an immunoblotting method."}, "[3]": {"target": "T2, murine ATP6V1B2 1-172aa truncated sequence (Mus musculus, UniProt P62814)", "T2 construct": "expressed in transfected cells; host or cells: 293 cells", "T2 sequence (P62814 1-172)": "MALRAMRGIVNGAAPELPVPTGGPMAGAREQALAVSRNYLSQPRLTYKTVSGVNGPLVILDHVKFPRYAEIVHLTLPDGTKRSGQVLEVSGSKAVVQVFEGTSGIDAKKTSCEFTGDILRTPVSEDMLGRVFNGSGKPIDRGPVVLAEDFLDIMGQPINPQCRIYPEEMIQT", "experiment": "Co-immunoprecipitation of EGFP-tagged QD202 with Myc-tagged ATP6V1B2 1-172aa truncated sequence in 293 cells", "type": "binding", "conditions": "Myc antibody, immunoblotting", "source_text": "as §1, §2"}, "ATP6V1B2 [4]": {"target": "T3, ATP6V1B2 (Mus musculus, UniProt P62814)", "T3 sequence (P62814 whole entry)": "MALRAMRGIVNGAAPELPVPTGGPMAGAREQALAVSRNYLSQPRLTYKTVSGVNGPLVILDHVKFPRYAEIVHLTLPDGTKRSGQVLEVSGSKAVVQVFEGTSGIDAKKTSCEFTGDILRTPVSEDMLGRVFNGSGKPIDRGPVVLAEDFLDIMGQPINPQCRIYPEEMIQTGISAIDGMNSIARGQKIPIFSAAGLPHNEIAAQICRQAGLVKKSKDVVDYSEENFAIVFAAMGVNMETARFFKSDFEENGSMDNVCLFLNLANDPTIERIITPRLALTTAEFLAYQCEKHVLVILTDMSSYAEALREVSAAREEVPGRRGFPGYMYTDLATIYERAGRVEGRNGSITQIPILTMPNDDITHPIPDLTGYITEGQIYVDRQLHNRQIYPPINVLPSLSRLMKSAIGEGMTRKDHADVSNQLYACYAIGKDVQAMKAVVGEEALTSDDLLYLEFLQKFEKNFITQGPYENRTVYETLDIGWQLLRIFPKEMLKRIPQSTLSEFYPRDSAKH", "experiment": "Immunoprecipitation from hippocampus of mice given biotin-labeled polypeptide, with SDS-PAGE and protein mass spectrum identification", "type": "binding", "set-up": "from tissue; host or cells: mouse brain hippocampus", "conditions": "biotin-labeled polypeptide 6.25 mg/kg through veins, hippocampus collected after 4 h, compared with disordered control QD201", "procedure": "(1) Polypeptide QD202 was synthesized according to the amino acid sequence as set forth in SEQ ID NO. 1, and a biotin label was added at the […] of the polypeptide; and the amino acid sequence of the QD202 was randomly disorganized, a disordered control QD201 (the amino acid sequence as set forth in SEQ ID NO. 7) was synthesized, and the biotin label was added at the […] of the polypeptide. The polypeptide QD202 and the QD201 were dissolved by PBS, and a storage solution is prepared with the concentration of 500 μM.\n(2) The biotin-labeled QD202 and QD201 were respectively feed to 2 C57BL/6 mice of 8 months old through veins at the dosage of 6.25 mg/kg. The mice were anesthetized after 4 h, brain hippocampus tissues were collected, a lysis buffer solution was added, the tissues were crushed by mechanical grinding, and then supernatant was collected after centrifuging. The biotin antibody and Protein G agarose beads were added into the supernatant for immunoprecipitation, the test steps referred to Using Antibodies: A Laboratory Manual [J]. Science Press, 2002. The proteins were eluted by a protein loading buffer solution. […]"}, "ATP6V1B2 [5]": {"target": "T3, ATP6V1B2", "experiment": "Co-immunoprecipitation in HEK 293 cells transfected with murine Atp6V1b2 expression plasmid with myc tag", "type": "binding", "set-up": "expressed in transfected cells; host or cells: HEK 293", "conditions": "HEK 293 cell lysate, biotin antibody, immunoblotting", "procedure": "(6) A murine Atp6V1b2 expression plasmid with a myc tag at the 3′ end was constructed; the plasmid was transfected in HEK 293 cells; the cells were collected after 2 days; and cell protein was extracted. The biotin antibody and protein G agarose beads were added into a cell lysis solution for co-immunoprecipitation^[1], and the protein was eluted by the protein loading buffer solution.\n(7) SDS-PAGE protein electrophoresis gel was prepared, the concentration of lower-layer separation gel was 10%, and the concentration of upper-layer concentrated gel was 4%; the sample was added into a loading hole; and the protein was detected by an immunoblotting method, with the result shown in FIG. 6b."}},
  "data": [
    {"substance": "QD202: polypeptide synthesized according to the amino acid sequence as set forth in SEQ ID NO. 1 (YGRKKRRQRRRSPVDVVCS; QD202)", "values": [
      {"measurement": "excitatory postsynaptic current amplitude", "setting": "[1]", "value": "no influence"},
      {"measurement": "release frequency of excitatory postsynaptic current", "setting": "[1]", "value": "increasing the release frequency"},
      {"measurement": "spontaneous excitatory synaptic transmitter release of hippocampal CA1 neurons", "setting": "[1]", "value": "can increase the spontaneous excitatory synaptic transmitter release"},
      {"measurement": "binding to ATP6V1B2 1-286aa truncated sequence by co-immunoprecipitation", "setting": "[2]", "value": "only the full-length ATP6V1B2 protein can be combined"},
      {"measurement": "binding to ATP6V1B2 1-172aa truncated sequence by co-immunoprecipitation", "setting": "[3]", "value": "only the full-length ATP6V1B2 protein can be combined"},
      {"measurement": "protein specifically bound to the polypeptide (mass spectrum identification)", "setting": "ATP6V1B2 [4]", "value": "protein specifically bound to QD202 was ATP6V1B2"},
      {"measurement": "binding to ATP6V1B2 protein by co-immunoprecipitation", "setting": "ATP6V1B2 [5]", "value": "specific binding between the QD202 and the ATP6V1B2 protein can be found"}
    ]}
  ]
}
